From PMC3643604

Target: MED25 ACID/PTOV domain (purified) (human)
Assay: ITC

ERM 38–68 peptide (from UniProt P41161 38-68)
Kd: 543 nM
stoichiometry N: 1
